Assay results: patent US20220227882A1 (TRUSTEES OF TUFTS COLLEGE, published 2022)

Experiments:
[1] = molecular target: Full-length human ADAM8 on cells (HEK293-ADAM8 stable or transfected cells; also endogenous ADAM8 of breast cell lines and PDX tumors) (human) (UniProt P78325)
[2] = molecular target: Recombinant human ADAM8 (rHuADAM8) ectodomain protein (aa 17-497), ACRO Biosystems AD8-H5223 (human) (UniProt P78325); test: adhesion of α9β1 integrin CHO cells to coated rHuADAM8, antibody 20 µg/ml, vs isotype control IgG; mean ± S.D., n=3
[3] = molecular target: Full-length human ADAM8 on cells (HEK293-ADAM8 stable or transfected cells; also endogenous ADAM8 of breast cell lines and PDX tumors) (human) (UniProt P78325); test: FACS, HEK293-ADAM8 cells, column 10 µg/ml, negative control
[4] = molecular target: Full-length human ADAM8 on cells (HEK293-ADAM8 stable or transfected cells; also endogenous ADAM8 of breast cell lines and PDX tumors) (human) (UniProt P78325); test: FACS, HEK293-ADAM8 cells, column 1 µg/ml, negative control
[5] = molecular target: Full-length human ADAM8 on cells (HEK293-ADAM8 stable or transfected cells; also endogenous ADAM8 of breast cell lines and PDX tumors) (human) (UniProt P78325); test: FACS, HEK293-ADAM8 cells, column 0.1 µg/ml, negative control
[6] = molecular target: Quenched fluorescent CD23 peptide (Biozyme, PEPDAB013m001)
[7] = molecular target: T1, Recombinant human ADAM8 (rHuADAM8) ectodomain protein (aa 17-497), ACRO Biosystems AD8-H5223 (human, UniProt P78325 17-497); test: ELISA on coated rHuADAM8, antibody 0 to 2.5 nM
T1 construct: Bought protein made in HEK293 cells; The protein clips off its own prodomain (aa 17-191); also called rhADAM8; immunogen
T1 sequence: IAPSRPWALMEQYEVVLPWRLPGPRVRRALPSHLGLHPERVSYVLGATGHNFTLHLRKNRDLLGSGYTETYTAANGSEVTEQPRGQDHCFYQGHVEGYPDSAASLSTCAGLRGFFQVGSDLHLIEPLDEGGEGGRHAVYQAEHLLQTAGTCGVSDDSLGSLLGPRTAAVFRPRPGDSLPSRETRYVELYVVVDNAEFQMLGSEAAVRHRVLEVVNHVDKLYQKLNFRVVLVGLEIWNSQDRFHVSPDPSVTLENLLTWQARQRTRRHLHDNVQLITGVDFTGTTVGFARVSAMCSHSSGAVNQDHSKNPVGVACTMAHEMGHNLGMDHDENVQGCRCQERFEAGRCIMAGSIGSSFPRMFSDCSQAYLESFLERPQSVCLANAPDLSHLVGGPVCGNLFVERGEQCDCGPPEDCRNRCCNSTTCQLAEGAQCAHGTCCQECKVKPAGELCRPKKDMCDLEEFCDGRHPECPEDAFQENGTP

“MAB1031 anti-ADAM8 antibody (R&D Systems)” was tested, and the % inhibition of CD23 cleavage (MP activity), HEK293 cells co-expressing CD23 and ADAM8, antibody 20 µg/ml [1] was 65.8 % inhibition, the % inhibition of transendothelial migration of MDA-MB-231 cells through HUVEC, antibody 20 µg/ml [1] was 42.4 % inhibition and the % inhibition of α9β1 integrin binding to ADAM8 [2] was 63.4 % inhibition.

mIgG (antibody) was tested, and the MFI [3] was 4 MFI, the MFI [4] was 3.2 MFI and the MFI [5] was 3.3 MFI.

B1: Recombinant human ADAM8 (rHuADAM8) ectodomain protein (aa 17-497), ACRO Biosystems AD8-H5223 (protein)
chain: T1 sequence
With B1 the “fluorescence released from a quenched CD23 peptide over 24 hr” value [6] was “An increase in fluorescence was seen over time in samples with rHuADAM8, which was inhibited in the presence of the chelating agent EDTA”.

B2: chADP2-IgG1 (antibody, V domains shown)
VH: EVKLVESGGGLVQPGGSLSLSCAASGFSFPDYYMSWVRQPPGKALEWLGFIRDSANGYTTEYIASVKGRFTFSRDNSQSILYLQMNALRAEDSATYYCARYSRYYGMDYWGQGTSVTVSS
VL: SIVMTQTPKILLVSAGDRVTITCKASQTVNYDVAWYQQKPGQSPKPVIYFASNRYTGVPDRFTGSGFGTDFTFTISTVQAEDLAVYFCQQDYSAPWTFGGGTKLEIKR
notes: Mouse ADP2 VL and VH joined to germline human IgG1 CL and CH; made in CHO cells; also called chimeric ADP2
Work on B2 yielded a Kd [7] of 0.0366 nM.

B3: chADP13-IgG1 (antibody, V domains shown)
VH: EVQLQQSGPEMVKPGTSVKISCKASGYTFTDYYINWVKQSHGKSLEWIGDISPNIGGATYNPKFKGKAILTVDKSARTAYMELRSLTSEDSAVYCCTRGGSSYPYFYAMDYWGQGTSVTVSS
VL: DIVMSQSPSSLAVSVGEKVTMSCKSSQSLLYSSNQKKYLAWYQQKPGQSPKLLIYWASTRESGVPDRFTGSGSGTDFTLTISSVKAEDLAVYYCQQFYSYPYTFGGGTKLEIKR
notes: Mouse ADP13 VL and VH joined to germline human IgG1 CL and CH; made in CHO cells; also called chimeric ADP13
For B3, the Kd [7] was 0.0795 nM.
